The values below come from publication PMC7688639.

Usually kon stands for the second-order rate constant of association. A low value points to slower complex formation.

For experiment [1], the target named is actin filaments (F-actin) polymerised from rabbit muscle actin (rabbit) (UniProt P68135). Description: single-molecule TIRF binding kinetics (dwell times); actin filaments tethered to a PEG/biotin-PEG coverslip by streptavidin and biotin-phalloidin; labelled binding domain in solution at ~0.05–0.1 nM; 25 mM imidazole, 25 mM KCl, 4 mM MgCl2, 1 mM EGTA, 1 mM DTT, pH 7.4, 10 µg/mL beta casein; double exponential fit of the CDF, bleaching corrected.

Experiment [2] has the same target. Description: single-molecule TIRF binding kinetics (dwell times); dual colour with 10 nM Atto-488-cofilin and Alexa-555-utrn (0.05–0.1 nM), 450 ms per frame; events far (>30 nm) from a cofilin binding event.
Experiment [3] shares this target. Kind of experiment: single-molecule TIRF binding kinetics (on-rate); tethered actin filaments; frequency of binding events for a range of concentrations of actin-binding domain, linear regression of frequency against concentration.
For experiment [4] the target is unchanged. Description: single-molecule TIRF binding kinetics (dwell times); as a1, with 1 µM phalloidin added after the filaments had been tethered.
For experiment [5] the target is unchanged. Description: single-molecule TIRF binding kinetics (dwell times); as a1, in the presence of 200 nM HMM.
Experiment [6] has the same target. Kind of experiment: single-molecule TIRF binding kinetics (dwell times); as a1, actin filaments co-polymerized with 5 µM biotin-phalloidin.
Experiment [7] has the same target. Description: single-molecule TIRF binding kinetics (dwell times); as a1, in the presence of 200 nM drebrin 1–300.
For experiment [8] the target is unchanged. Kind of experiment: single-molecule TIRF binding kinetics (dwell times); dual colour with 10 nM Atto-488-cofilin and Alexa-555-utrn (0.05–0.1 nM), 450 ms per frame; events near (<30 nm) a cofilin binding event; only τ1 fitted.
The target is the same in experiment [9]. Description: single-molecule TIRF binding kinetics (dwell times); as a1, with 1 µM jasplakinolide added after the filaments had been tethered.

Regarding “utrophin actin-binding domain Δ-nterm Q33A T36A (domain or fragment)”, the average dwell time (τav) in experiment [1] was determined as 0.8 s. Also, the dwell time τ1 (first timescale) in [1] is 0.42 s; in experiment [2] it was 0.44 s; in [4] it was 0.49 s; in experiment [5], 0.4 s; in [6] it was 0.41 s; in experiment [7] it was 0.34 s. In addition, the dwell time τ1 (first timescale) in experiment [8] stood at 0.57 s; in [9] it was 0.47 s. In [1], the ratio of the two dwell-time scales (τ2/τ1) came to 9.6. The kon in experiment [3] came out at 2.1e+06 M⁻¹ s⁻¹.
